The results in this text go back to publication PMC7467671.

What all share (test): potentiometry
The target in series [1] is His10 (position 10, MLKDEH-----). As to conditions: 298 K, 0.1 M NaClO4.
Series [2] has as its target Glu9 (position 9, VMLKDEH----). The following applies: 298 K; 0.1 M NaClO4; none (4 mM HClO4, titrated with 0.1 M carbonate-free NaOH); metal-free peptide, largely unstructured.
Series [3] concerns the target Nterm1 (position 1, -----GTAVML). As to conditions: 298 K, 0.1 M NaClO4.
Another series has as its target Lys7 (position 7, …--). The following applies: 298 K, 0.1 M NaClO4.
Series [4] has as its target Asp8 (position 8, AVMLKDEH---). The following applies: 298 K; 0.1 M NaClO4; none (4 mM HClO4, titrated with 0.1 M carbonate-free NaOH); metal-free peptide, largely unstructured.
The target in series [5] is Nterm1 (position 1, -----DEHGGG). As to conditions: 298 K, 0.1 M NaClO4.
The target of series [6] is Glu2 (position 2, ----DEHGGGG). The following applies: 298 K; 0.1 M NaClO4; none (4 mM HClO4, titrated with 0.1 M carbonate-free NaOH); metal-free peptide, largely unstructured.
Series [7] concerns the target His10 (position 10, GGGDEH-----). As to conditions: 298 K, 0.1 M NaClO4.
The target in series [8] is His3 (position 3, ---DEHGGGGD). The following applies: 298 K, 0.1 M NaClO4.
The target of series [9] is Asp8 (position 8, HGGGGDEH---). The following applies: 298 K; 0.1 M NaClO4; none (4 mM HClO4, titrated with 0.1 M carbonate-free NaOH); metal-free peptide, largely unstructured.
The target of series [10] is Glu9 (position 9, GGGGDEH----). The following applies: 298 K; 0.1 M NaClO4; none (4 mM HClO4, titrated with 0.1 M carbonate-free NaOH); metal-free peptide, largely unstructured.
Series [11] deals with Asp1 (position 1, -----DEHGGG). As to conditions: 298 K; 0.1 M NaClO4; none (4 mM HClO4, titrated with 0.1 M carbonate-free NaOH); metal-free peptide, largely unstructured.
The target of series [12] is Asp1 (position 1, -----DEHGTA). As to conditions: 298 K; 0.1 M NaClO4; none (4 mM HClO4, titrated with 0.1 M carbonate-free NaOH); metal-free peptide, largely unstructured.
In series [13] the target is Glu2 (position 2, ----DEHGTAV). As to conditions: 298 K, 0.1 M NaClO4.
The target of series [14] is Lys10 (position 10, TAVMLK-----). The following applies: 298 K, 0.1 M NaClO4.
The target in series [15] is Nterm1 (position 1, -----DEHGTA). The following applies: 298 K, 0.1 M NaClO4.
Series [16] addresses His3 (position 3, ---DEHGTAVM). The following applies: 298 K, 0.1 M NaClO4.
The target of series [17] is Nterm1 (position 1, -----TMVLDE). The following applies: 298 K, 0.1 M NaClO4.
The target of a further series is Glu6 (position 6, …-). As to conditions: 298 K; 0.1 M NaClO4; none (4 mM HClO4, titrated with 0.1 M carbonate-free NaOH); metal-free peptide, largely unstructured.
For the next series, the target named is His7 (position 7, …--). The following applies: 298 K, 0.1 M NaClO4.
For series [18], the target named is Lys9 (position 9, LDEHAKG----). The following applies: 298 K, 0.1 M NaClO4.
Another series has as its target Asp5 (position 5, -…). The following applies: 298 K; 0.1 M NaClO4; none (4 mM HClO4, titrated with 0.1 M carbonate-free NaOH); metal-free peptide, largely unstructured.
The target of series [19] is His2 (position 2, ----THMVLAK). The following applies: 298 K, 0.1 M NaClO4.
In series [20] the target is Lys7 (position 7, HMVLAKGED--). The following applies: 298 K, 0.1 M NaClO4.
Series [21] addresses Glu9 (position 9, VLAKGED----). The following applies: 298 K, 0.1 M NaClO4.
Series [22] addresses Asp10 (position 10, LAKGED-----). As to conditions: 298 K; 0.1 M NaClO4; none (4 mM HClO4, titrated with 0.1 M carbonate-free NaOH); metal-free peptide, largely unstructured.
For series [23], the target named is Nterm1 (position 1, -----THMVLA). The following applies: 298 K, 0.1 M NaClO4.
Setting [24] is: none (4 mM HClO4, titrated with 0.1 M carbonate-free NaOH), metal-free peptide, largely unstructured.
The mark [25] stands for this setting: none (4 mM HClO4, titrated with NaOH), Mn(II)-bound, Mn(II):peptide 1:1.1, [Mn(II)]tot = 0.5 mM.
The mark [26] stands for this setting: none (4 mM HClO4, titrated with NaOH), Cu(II)-bound, Cu(II):peptide 1:1.1, [Cu(II)]tot = 1 mM.

For orientation: pKa means the negative logarithm of the acid dissociation constant. A low value points to a group that gives up its proton readily. Consider GTAVMLKDEH [Term-DEH decapeptide (GTAVMLKDEH) (synthetic construct (Deinococcus radiodurans-inspired))], for which the pKa is 7.02 in series [1] (setting [24]); 7.08 in series [1] (setting [25]); 4.31 in series [2]; 8.16 in [3] (setting [24]); 5.34 in series [3] (setting [26]); 7.79 in series [3] (setting [25]). Moreover, the pKa is reported as 10.82(1) with Lys7 (position 7, …--) (setting [24]); 11.05 in the series with Lys7 (position 7, …--) (setting [26]); 3.46 in series [4].
On to DEHGGGGDEH [Bis-DEH decapeptide (DEHGGGGDEH) (synthetic construct (Deinococcus radiodurans-inspired))], for which the pKa in series [5] (setting [24]) is 8.41; in series [5] (setting [25]), 7.82; in series [6], 4.05; in series [7] (setting [24]) it was 7.41; in series [7] (setting [26]), 7.73; in series [7] (setting [25]), 6.37. Besides, the pKa in [8] (setting [24]) is recorded as 6.67; in series [8] (setting [25]), 7.25; in series [9], 3.36; in [10], 4.69; in [11], 2.67.
For DEHGTAVMLK, the pKa in series [12] was 3.06; in [13] (setting [24]), 4.20; in [13] (setting [26]), 4.17; in series [14] (setting [24]), 9.62(3); in series [14] (setting [26]), 9.00; in series [14] (setting [25]) it was 8.96. For the same protein, the pKa in series [15] (setting [24]) was 7.85; in [15] (setting [25]) it was 7.5; in [16] (setting [24]), 6.47; in series [16] (setting [25]) it was 6.11.
Consider TMVLDEHAKG [Mid-DEH decapeptide (TMVLDEHAKG) (synthetic construct (Deinococcus radiodurans-inspired))], for which the pKa in series [17] (setting [24]) amounted to 7.33; in series [17] (setting [26]), 4.59; in series [17] (setting [25]), 7.21; in the series with Glu6 (position 6, …-), 4.06; with His7 (position 7, …--) (setting [24]), 6.29; with His7 (position 7, …--) (setting [25]), 6.42. The pKa in [18] (setting [24]) was 10.52(1); in series [18] (setting [26]), 11.20; in [18] (setting [25]) it was 9.8; with Asp5 (position 5, -…) it was 3.55.
Take THMVLAKGED [DP2 decapeptide (THMVLAKGED) (synthetic construct (scrambled DP1; Deinococcus radiodurans-inspired))]: the pKa in series [19] (setting [24]) is recorded as 5.91; in series [19] (setting [25]), 5.40; in series [20] (setting [24]), 9.86(1); in series [20] (setting [26]), 9.87; in series [20] (setting [25]), 8.29; in series [21] (setting [24]), 4.70. The pKa amounted to 4.91 in series [21] (setting [26]), 3.89 in [22], 7.01 in series [23] (setting [24]) and 6.59 in series [23] (setting [25]).
